Reference: patent US8987424B2, “CA6 antigen-specific cytotoxic conjugate and methods of using the same” (ImmunoGen, Inc., priority 2003, dated 2015)

Columns and labels:
OVCAR5 IP tumors = assay: Intraperitoneal OVCAR5 tumor model; type: in vivo, SCID mice; details: 600 μg/kg DM1 weekly for 2 weeks
Experimental: Tumor cells were injected intraperitoneally on day 0, and immunoconjugate treatments were given on day 6 and 13. Animals were euthanized once body weight loss exceeded 20%.
Human ovarian cancer is largely a disease of the peritoneum. OVCAR5 cells grow aggressively as an intraperitoneal (IP) model in SCID mice forming tumor nodules and producing ascites in a manner similar to human disease. […] OVCAR5 cells were grown in vitro, harvested and 1×10^7 cells in 100 μL of serum free medium were injected intraperitoneally. Tumors were allowed to grow for 6 days at which time treatment was initiated. Mice were treated weekly for 2 weeks with either PBS or DS6-DM1 conjugate at a dose of 600 μg/kg DM1 and monitored for weight loss resulting from peritoneal disease. By day 28, the PBS group of mice had lost greater than 20% body weight and were euthanized. The treated group was sacrificed at day 45 after exceeding 20% body weight loss.

OVCAR5 tumor xenografts = assay: Subcutaneous OVCAR5 xenograft efficacy study; type: in vivo, SCID mice
Experimental: (§1) OVCAR5 (FIG. 26A and FIG. 26B), TOV-21 G (FIG. 26C and FIG. 26D), HPAC (FIG. 26E and FIG. 26F), and HeLa (FIG. 26G and FIG. 26H) cells were inoculated on day 0, and immunoconjugate treatments were given on day 6 and 13. PBS control animals were euthanized once tumor volumes exceeded 1000 mm^3. The conjugate was given at a dose of 600 μg/kg DM1, corresponding to an antibody concentration 27.7 mg/kg. Tumor volume (FIG. 26A, FIG. 26C, FIG. 26E, and FIG. 26G) and body weight (FIG. 26B, FIG. 26D, FIG. 26F, and FIG. 26H) of the mice were monitored during the course of the study.
(§2) muDS6-DM 1 activity was further tested on a panel of subcutaneous xenograft models (see FIG. 26). […] OVCAR5 cells and TOV-21 G are ovarian tumor cell lines; HPAC is a pancreatic tumor cell line; HeLa is a cervical tumor cell line. OVCAR5 and TOV-21G cells have low surface CA6 expression; HeLa cells have an intermediate level of surface CA6 expression; HPAC cells have a high CA6 density of surface expression. TOV-21G and HPAC cells are maytansine sensitive; OVCAR5 and HeLa cells are 2-7-fold less maytansine sensitive.
The 4 cell-lines were grown in vitro, collected, and 1×10^7 cells in a 100 μL of serum free medium were injected under the right shoulder of each mouse (6 mice per model) and allowed to grow for 6 days to an average tumor volume of 57.6±6.7 and 90.2±13.4 mm^3 for the test and control groups respectively of OVCAR5, 147.1±29.6 and 176.2±18.9 mm^3 for the test and control groups respectively of HPAC, 194.3±37.2 and 201.7±71.7 mm^3 for the test and control groups respectively of HeLa, and 96.6±22.8 and 155.6±13.4 mm^3 for the test and control groups respectively of TOV-21G, at which time drug treatment was initiated. For each model three control mice were treated with two weekly doses of PBS and three test mice were treated with two weekly doses of conjugate (600 μg/kg DM1) intravenously. Toxic responses were monitored daily during the treatment and tumor volumes and body weights were monitored throughout the study. […] The HeLa model had about a 3 week lag period before beginning exponential growth. […] For the TOV-21 G, HPAC, and HeLa models the mice remain tumor-free at day 61. In the OVCAR5 model tumors recurred at about day 45 after tumor inoculation. Thus, muDS6-DM1 treatment in this model results in a tumor growth delay of approximately 34 days. The growth delay is significant as OVCAR5 cells are less maytansine-sensitive and have low CA6 epitope expression. In models where either the CA6 epitope density is higher or the model has greater maytansine sensitivity, the tumor regression is more robust. It is important to note that only 2 doses were administered. […] It is likely that cures could be achieved with additional or higher conjugate doses.

[1] = system: A375 cells (antigen negative); assay: Clonogenic assay; type: cell-based, human; details: 3×10^−9 M, highest concentration tested
Experimental: (§3) The cytotoxicity of maytansinoid conjugated muDS6 antibody was examined using 2 different assay formats in various DS6 positive cell lines. Clonogenic assays were conducted where cells (1000-2500 cells/well) were plated on 6-well plates in 2 ml of conjugate diluted in culture media. […] The wells were washed with PBS and the colonies were stained with a 1% w/v crystal violet/10% v/v formaldehyde/PBS solution. Unbound stain was then washed thoroughly from the wells with distilled water, and the plates were allowed to dry. The colonies were counted using a Leica StereoZoom 4 dissecting microscope.
(§4) Plating efficiency (PE) was calculated as the number of colonies/number of cells plated. Surviving fraction was calculated as PE of treated cells/PE of non-treated cells. The IC50 concentration was determined by graphing the surviving fraction of cells vs. the molar concentration of the conjugate.

pancreatic cell lines = assay: Clonogenic assay; type: cell-based, human
Experimental: as §3, §4

[2] = system: cervical cell lines (HeLa, KB, and WISH); assay: Clonogenic assay; type: cell-based, human
Experimental: as §3, §4

HPAC tumor xenografts = assay: Subcutaneous HPAC xenograft efficacy study; type: in vivo, SCID mice
Experimental: as §1, §2
(§5) The 4 cell-lines were grown in vitro, collected, and 1×10^7 cells in a 100 μL of serum free medium were injected under the right shoulder of each mouse (6 mice per model) and allowed to grow for 6 days to an average tumor volume of 57.6±6.7 and 90.2±13.4 mm^3 for the test and control groups respectively of OVCAR5, 147.1±29.6 and 176.2±18.9 mm^3 for the test and control groups respectively of HPAC, 194.3±37.2 and 201.7±71.7 mm^3 for the test and control groups respectively of HeLa, and 96.6±22.8 and 155.6±13.4 mm^3 for the test and control groups respectively of TOV-21G, at which time drug treatment was initiated. For each model three control mice were treated with two weekly doses of PBS and three test mice were treated with two weekly doses of conjugate (600 μg/kg DM1) intravenously. Toxic responses were monitored daily during the treatment and tumor volumes and body weights were monitored throughout the study. […]

TOV-21G tumor xenografts = assay: Subcutaneous TOV-21G xenograft efficacy study; type: in vivo, SCID mice
Experimental: as §1, §2, §5

HeLa cells = assay: Flow cytometry binding assay; set-up: species or system human; details: HeLa
Experimental: Cells were maintained in a 37° C., 5% CO2 humidified incubator.
Cells ([…]) were incubated, on ice for 3-4 h, with serially diluted concentrations of the DS6 antibody prepared in FACS buffer (2% goat serum, RPMI) into 96-well plates. The cells were spun down in a table top centrifuge at 1500 rpm for 5 min at 4° C. After removing the media, the wells were then refilled with 150 μl of FACS buffer. The wash step was then repeated. FITC-labeled goat anti-mouse IgG (Jackson Immunoresearch) was diluted 1:100 to FACS buffer and incubated with the cells for 1 h on ice. The plate was covered in foil to prevent photobleaching of the signal. After two washes, the cells were fixed with 1% formaldehyde and analyzed on a flow cytometer.

[3] = 600 μg/kg DM1, two weekly doses
[4] = 600 μg/kg DM1 i.v., two weekly doses

Molecule	tumor growth delay (in words) (OVCAR5 IP tumors)	visible signs of toxicity (OVCAR5 IP tumors)	day of sacrifice after exceeding 20% body weight loss (OVCAR5 IP tumors; PBS group day 28)	body weight (OVCAR5 tumor xenografts; [3])	day of tumor recurrence after tumor inoculation (OVCAR5 tumor xenografts; [3])	tumor growth delay (OVCAR5 tumor xenografts; [3])	tumor regression (OVCAR5 tumor xenografts; [4])	effect of conjugate on antigen negative cells [1]	sensitivity to the conjugate (pancreatic cell lines)	sensitivity to the conjugate [2]	body weight (HPAC tumor xenografts; [3])	tumor status at day 61 (HPAC tumor xenografts; [3])	tumor regression (HPAC tumor xenografts; [4])	body weight (TOV-21G tumor xenografts; [3])	tumor status at day 61 (TOV-21G tumor xenografts; [3])	tumor regression (TOV-21G tumor xenografts; [4])	MMF (average maximum relative mean fluorescence) (HeLa cells)
DS6-DM1: muDS6 antibody modified with SPP and conjugated to the maytansinoid DM1 (conjugate) VH: QAYLQQSGAELVRSGASVKMSCKASGYTFTSYNMHWVKQTPGQGLEWIGYIYPGNGATNYNQKFKGKATLTADPSSSTAYMQISSLTSEDSAVYFCARGDSVPFAYWGQGTLVTVSA VL: QIVLTQSPAIMSASPGEKVTITCSAHSSVSFMHWFQQKPGTSPKLWIYSTSSLASGVPARFGGSGSGTSYSLTISRMEAEDAATYYCQQRSSFPLTFGAGTKLELKR	able to delay tumor growth	no visible signs of toxicity	45 days	no weight loss was observed	~45 days	approximately 34 days	complete tumor regression in all mice	only slightly affected	None of the pancreatic cell lines appeared to have been affected	sensitive	no weight loss was observed	tumor-free	complete tumor regression in all mice	no weight loss was observed	tumor-free	complete tumor regression in all mice	–
DS6: murine anti-CA6 monoclonal antibody DS6 (ATCC deposit number PTA-4449) (antibody, V domains shown) VH: QAYLQQSGAELVRSGASVKMSCKASGYTFTSYNMHWVKQTPGQGLEWIGYIYPGNGATNYNQKFKGKATLTADPSSSTAYMQISSLTSEDSAVYFCARGDSVPFAYWGQGTLVTVSA VL: QIVLTQSPAIMSASPGEKVTITCSAHSSVSFMHWFQQKPGTSPKLWIYSTSSLASGVPARFGGSGSGTSYSLTISRMEAEDAATYYCQQRSSFPLTFGAGTKLELKR	–	–	–	–	–	–	–	–	–	–	–	–	–	–	–	–	242.50
